Drawing on publication PMC2504713 (Journal of Leukocyte Biology, 2008), this text covers IC50, Kd and EC50 for three molecules.

Test [1] addresses Recombinant rat Nrp1, conjugated to an Fc fragment of human IgG1 (Nrp1-Fc) (rat) (UniProt Q9QWJ9). Nature of the test: ELISA.
For test [2], the target named is T1, LAP C-terminal peptide QSSRHRR.
T1 peptide: Ac-QSSRHRR-OH
Briefly: ELISA. (In an ELISA, binding on a coated surface is turned into a signal by an enzyme label.)

On to Active (mature) TGF-β1 (ligand), for which, in test [1], the IC50 was 0.89 nM and the Kd is 0.04 nM.

Turning to “LAP-TGF-β1 (the latent form of TGF-β1) (from UniProt P01137 30-278) (complex)”, in test [1], the half-maximal effective concentration (EC50) was 0.338 nM.

B1: Recombinant rat Nrp1, conjugated to an Fc fragment of human IgG1 (Nrp1-Fc) (Fc fusion, UniProt Q9QWJ9 22-855, looked up)
chain: FRSDKCGGTIKIENPGYLTSPGYPHSYHPSEKCEWLIQAPEPYQRIMINFNPHFDLEDRDCKYDYVEVIDGENEGGRLWGKFCGKIAPSPVVSSGPFLFIKFVSDYETHGAGFSIRYEIFKRGPECSQNYTAPTGVIKSPGFPEKYPNSLECTYIIFAPKMSEIILEFESFDLEQDSNPPGGVFCRYDRLEIWDGFPEVGPHIGRYCGQKTPGRIRSSSGILSMVFYTDSAIAKEGFSANYSVLQSSISEDFKCMEALGMESGEIHSDQITASSQYGTNWSVERSRLNYPENGWTPGEDSYREWIQVDLGLLRFVTAVGTQGAISKETKKKYYVKTYRVDISSNGEDWITLKEGNKAIIFQGNTNPTDVVFGVFPKPLITRFVRIKPASWETGISMRFEVYGCKITDYPCSGMLGMVSGLISDSQITASNQGDRNWMPENIRLVTSRTGWALPPSPHPYINEWLQVDLGDEKIVRGVIIQGGKHRENKVFMRKFKIAYSNNGSDWKMIMDDSKRKAKSFEGNNNYDTPELRAFTPLSTRFIRIYPERATHSGLGLRMELLGCEVEVPTAGPTTPNGNPVDECDDDQANCHSGTGDDFQLTGGTTVLATEKPTIIDSTIQSEFPTYGFNCEFGWGSHKTFCHWEHDSHAQLRWRVLTSKTGPIQDHTGDGNFIYSQADENQKGKVARLVSPVVYSQSSAHCMTFWYHMSGSHVGTLRVKLHYQKPEEYDQLVWMVVGHQGDHWKEGRVLLHKSLKLYQVIFEGEIGKGNLGGIAVDDISINNHIPQEDCAKPTDLDKKNTEIKIDETGSTPGYEEGKGDKNISRKPGNVLKTLDP
Regarding B1, in test [2], the 50% effective concentration (EC50) came to 4.18 ± 0.99 nM.

The IC50 is the concentration that inhibits the measured activity by half. The term Kd denotes the free concentration of one partner at which half of the binding sites on the other are occupied at equilibrium, for simple one-to-one binding. As a reminder, the EC50 is the concentration that produces a half-maximal response.
